Target: the molecule itself
Test: thioflavin T fluorescence of in vitro polymerisation; CAF domains 30 uM polymerised at 37 C with shaking at 200 rpm; ThT added at each time point; excitation 444 nm, emission 480 nm

B1: CAF domain (residues 148-223) of G175S human PMEL (domain or fragment, UniProt P40967 148-223, looked up)
chain: SFVYVWKTWGQYWQVLGGPVSGLSIGTSRAMLGTHTMEVTVYHRRGSRSYVPLAHSSSAFTITDQVPFSVSVSQLR
notes: PMEL, human, CAF (core amyloid-forming) domain, residues 148-223, with the G175S mutation linked to pigment dispersion syndrome; Polymerised in vitro in 150 mM sodium acetate pH 4.4 into two-protofilament fibrils; also called G175S CAF domain; G175S mutant; source: E. coli BL21 (DE3), pET24a, inclusion bodies, purified (Ni-NTA in 8M urea)
fold final yield of polymerized amyloids against the wild type: ~4 fold | fold rate of polymerisation against the wild type: ~4 fold
